# Reference: paper PMC1540706 (2006)
# B1: Eps15 P-short peptide [not stated] / human β2-appendage (700–937) used for ITC [human] (parent complex)
# chain 1: SFGDGFADFSTL
# chain 2: IGMAPGGYVAPKAVWLPAVKAKGLEISGTFTHRQGHIYMEMNFTNKALQHMTDFAIQFNKNSFGVIPSTPLAIHTPLMPNQSIDVSLPLNTLGPVMKMEPLNNLQVAVKNNIDVFYFSCLIPLNVLFVEDGKMERQVFLATWKDIPNENELQFQIKECHLNADTVSSKLQNNNVYTIAKRNVEGQDMLYQSLKLTNGIWILAELRIQPGNPNYTLSLKCRAPEVSQYIYQVYDSILKN
# B2: β-arrestin P-long peptide [not stated] / human β2-appendage (700–937) used for ITC [human] (parent complex)
# chain 1: DDDIVFEDFARQRLKGMKDD
# chain 2: B1 chain 2
# B3: 6× His human Eps15-MD (530–791) [human] / human β2-appendage (700–937) used for ITC [human] (parent complex)
# chain 1: STSSSETANLNEHVEGQSNLESEPIHQESPARSSPELLPSGVTDENEVTTAVTEKVCSELDNNRHSKEEDPFNVDSSSLTGPVADTNLDFFQSDPFVGSDPFKDDPFGKIDPFGGDPFKGSDPFASDCFFRQSTDPFATSSTDPFSAANNSSITSVETLKHNDPFAPGGTVVAASDSATDPFASVFGNESFGGGFADFSTLSKVNNEDPFRSATSSSVSNVVITKNVFEETSVKSEDEPPALPPKIGTPTRPCPLPPGKRSI
# chain 2: B1 chain 2
# Variants of: B1
# Test: ITC
row,Variant,Kd
1,chain 2 IGMAPGGYVAPKAVWLPAVKAKGLEISGTFTHRQGHIYMEMNFTNKALQHMTDFAIQFNKNSFGVIPSTPLAIHTPLMPNQSIDVSLPLNTLGPVMKMEPLNNLQVAVKNNIDVFYFSCLIPLNVLFVEDGKMERQVFLATWKDIPNENELQFQIKECHLNADTVSSKLQNNNVYTIAKRNVEGQDMLVQSLKLTNGIWILAELRIQPGNPNYTLSLKCRAPEVSQYIYQVYDSILKN [chain 2 Y189V],59 µM

# Variants of: B2
# Test: ITC
row,Variant,Kd
1,chain 2 IGMAPGGYVAPKAVWLPAVKAKGLEISGTFTHRQGHIYMEMNFTNKALQHMTDFAIQFNKNSFGVIPSTPLAIHTPLMPNQSIDVSLPLNTLGPVMKMEPLNNLQVAVKNNIDVFAFSCLIPLNVLFVEDGKMERQVFLATWKDIPNENELQFQIKECHLNADTVSSKLQNNNVYTIAKRNVEGQDMLYQSLKLTNGIWILAELRIQPGNPNYTLSLKCRAPEVSQYIYQVYDSILKN [chain 2 Y116A],1.7 µM

# Variants of: B2
# Test: ITC; stoichiometry (1.2)
row,Variant,Kd
1,chain 2 IGMAPGGYVAPKAVWLPAVKAKGLEISGTFTHRQGHIYMEMNFTNKALQHMTDFAIQFNKNSFGVIPSTPLAIHTPLMPNQSIDVSLPLNTLGPVMKMEPLNNLQVAVKNNIDVFYFSCLIPLNVLFVEDGKMERQVFLATWKDIPNENELQFQIKECHLNADTVSSKLQNNNVYTIAKANVEGQDMLYQSLKLTNGIWILAELRIQPGNPNYTLSLKCRAPEVSQYIYQVYDSILKN [chain 2 R180A],0.17 µM

# Variants of: B3
# Test: ITC; stoichiometry (1.9)
row,Variant,Kd
1,chain 2 IGMAPGGYVAPKAVWLPAVKAKGLEISGTFTHRQGHIYMEMNFTNKALQHMTDFAIQFNKNSFGVIPSTPLAIHTPLMPNQSIDVSLPLNTLGPVMKMEPLNNLQVAVKNNIDVFYFSCLIPLNVLFVEDGKMERQVFLATWKDIPNENELQFQIKECHLNADTVSSKLQNNNVYTIAKRNVEGQDMLVQSLKLTNGIWILAELRIQPGNPNYTLSLKCRAPEVSQYIYQVYDSILKN [chain 2 Y189V],11 µM
